The results in this text go back to US20240343809A1 (EXCELMAB, published 2024).

As a reminder, the EC50 is the concentration that produces a half-maximal response.

The labels stand for the following.
T1: human B7-H3 antigen, recombinant extracellular domain (ECD) (29-461) (human, UniProt Q5ZPR3 29-461)
T1 construct: range 29-461; Expressed in 293F cells as B7-H3-TEV-cFc-His fusion, cut with TEV protease and cleaned over a nickel column to give the human B7-H3 antigen; also called recombinant human B7-H3 antigen; hB7-H3
T1 sequence (looked up): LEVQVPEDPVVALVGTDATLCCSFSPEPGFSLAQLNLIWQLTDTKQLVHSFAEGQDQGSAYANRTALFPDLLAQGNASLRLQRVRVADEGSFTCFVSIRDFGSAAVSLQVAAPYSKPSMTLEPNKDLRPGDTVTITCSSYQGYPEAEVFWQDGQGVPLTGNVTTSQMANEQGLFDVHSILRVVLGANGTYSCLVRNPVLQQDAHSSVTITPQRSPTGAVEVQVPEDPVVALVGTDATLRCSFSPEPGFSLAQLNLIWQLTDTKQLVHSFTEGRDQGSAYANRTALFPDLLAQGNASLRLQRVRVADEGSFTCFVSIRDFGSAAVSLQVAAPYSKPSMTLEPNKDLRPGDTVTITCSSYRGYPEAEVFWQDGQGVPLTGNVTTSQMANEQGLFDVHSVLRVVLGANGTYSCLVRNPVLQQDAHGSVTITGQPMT

B1: Enoblituzumab (antibody, V domains shown)
VH: EVQLVESGGGLVQPGGSLRLSCAASGFTFSSFGMHWVRQAPGKGLEWVAYISSDSSAIYYADTVKGRFTISRDNAKNSLYLQMNSLRDEDTAVYYCGRGRENIYYGSRLDYWGQGTTVTVSS
VL: DIQLTQSPSFLSASVGDRVTITCKASQNVDTNVAWYQQKPGKAPKALIYSASYRYSGVPSRFSGSGSGTDFTLTISSLQPEDFATYYCQQYNNYPFTFGQGTKLEIKR
B2: affinity-matured B7-H3 antibody 50A4 (antibody, V domains shown)
VH: QVQLVQSGAEVKKPGSSVKVSCKASGGTFSNYAINWVRQAPGQGLEWMGGIIPLFGTANYAQKFQGRVTITADESTSTAYMELSSLRSDDTAVYYCARDEVVVGSGVNFGMDVWGQGTTVTVSS
VL: DIQMTQEPSLTTSPGGTVTLTCRSSTGAVTTSNYANWVQEKPGQAPRGLIGGTNKRAPGTPARFSGSLIGGKAALTITGVQPEDEAIYFCALWYSNLWVFGGGTKLEIK
notes: Full antibody expressed in 293F cells, protein A purified; VH assembled from the framework and CDR entries
B3: affinity-matured B7-H3 antibody 46D4 (antibody, V domains shown)
VH: QVQLVQSGAEVKKPGSSVKVSCKASGGTFSNYAINWVRQAPGQGLEWMGGIIPLFGTANYAQKFQGRVTITADESTSTAYMELSSLRSDDTAVYYCARDVVVPRSGVNFGMDVWGQGTTVTVSS
VL: DIQMTQEPSLTTSPGGTVTLTCRSSTGAVTTSNYANWVQEKPGQAPRGLIGGTNKRAPGTPARFSGSLIGGKAALTITGVQPEDEAIYFCALWYSNLWVFGGGTKLEIK
notes: as for B2
B4: affinity-matured B7-H3 antibody 50E3 (antibody, V domains shown)
VH: QVQLVQSGAEVKKPGSSVKVSCKASGGTFSNYAINWVRQAPGQGLEWMGGIIPLFGTANYAQKFQGRVTITADESTSTAYMELSSLRSDDTAVYYCARDVNNPGSGVNFGMDVWGQGTTVTVSS
VL: DIQMTQEPSLTTSPGGTVTLTCRSSTGAVTTSNYANWVQEKPGQAPRGLIGGTNKRAPGTPARFSGSLIGGKAALTITGVQPEDEAIYFCALWYSNLWVFGGGTKLEIK
notes: as for B2
B5: affinity-matured B7-H3 antibody 45B11 (antibody, V domains shown)
VH: QVQLVQSGAEVKKPGSSVKVSCKASGGTFSNYAINWVRQAPGQGLEWMGGIIPMWQSVNYAQKFQGRVTITADESTSTAYMELSSLRSDDTAVYYCARDQVVATSGVNFGMDVWGQGTTVTVSS
VL: DIQMTQEPSLTTSPGGTVTLTCRSSTGAVTTSNYANWVQEKPGQAPRGLIGGTNKRAPGTPARFSGSLIGGKAALTITGVQPEDEAIYFCALWYSNLWVFGGGTKLEIK
notes: as for B2
B6: affinity-matured B7-H3 antibody 46H7 (antibody, V domains shown)
VH: QVQLVQSGAEVKKPGSSVKVSCKASGGTFSNYAINWVRQAPGQGLEWMGGIIPLFGTANYAQKFQGRVTITADESTSTAYMELSSLRSDDTAVYYCARDRFTPRSGVNFGMDVWGQGTTVTVSS
VL: DIQMTQEPSLTTSPGGTVTLTCRSSTGAVTTSNYANWVQEKPGQAPRGLIGGTNKRAPGTPARFSGSLIGGKAALTITGVQPEDEAIYFCALWYSNLWVFGGGTKLEIK
notes: as for B2
B7: affinity-matured B7-H3 antibody 45F4 (antibody, V domains shown)
VH: QVQLVQSGAEVKKPGSSVKVSCKASGGTFSNYAINWVRQAPGQGLEWMGGIIPLFRSSNYAQKFQGRVTITADESTSTAYMELSSLRSDDTAVYYCARDQVVATSGVNFGMDVWGQGTTVTVSS
VL: DIQMTQEPSLTTSPGGTVTLTCRSSTGAVTTSNYANWVQEKPGQAPRGLIGGTNKRAPGTPARFSGSLIGGKAALTITGVQPEDEAIYFCALWYSNLWVFGGGTKLEIK
notes: as for B2
B8: affinity-matured B7-H3 antibody 42F7 (antibody, V domains shown)
VH: QVQLVQSGAEVKKPGSSVKVSCKASGGTRPAALINWVRQAPGQGLEWMGGIIPLFGTANYAQKFQGRVTITADESTSTAYMELSSLRSDDTAVYYCARDQVVATSGVNFGMDVWGQGTTVTVSS
VL: DIQMTQEPSLTTSPGGTVTLTCRSSTGAVTTSNYANWVQEKPGQAPRGLIGGTNKRAPGTPARFSGSLIGGKAALTITGVQPEDEAIYFCALWYSNLWVFGGGTKLEIK
notes: as for B2
B9: affinity-matured B7-H3 antibody 44F2 (antibody, V domains shown)
VH: QVQLVQSGAEVKKPGSSVKVSCKASGGTFSNYAINWVRQAPGQGLEWMGGIIPGFYSLNYAQKFQGRVTITADESTSTAYMELSSLRSDDTAVYYCARDQVVATSGVNFGMDVWGQGTTVTVSS
VL: DIQMTQEPSLTTSPGGTVTLTCRSSTGAVTTSNYANWVQEKPGQAPRGLIGGTNKRAPGTPARFSGSLIGGKAALTITGVQPEDEAIYFCALWYSNLWVFGGGTKLEIK
notes: as for B2
B10: affinity-matured B7-H3 antibody 47H4 (antibody, V domains shown)
VH: QVQLVQSGAEVKKPGSSVKVSCKASGGTFSNYAINWVRQAPGQGLEWMGGIIPLFGTANYAQKFQGRVTITADESTSTAYMELSSLRSDDTAVYYCARDFDAPGSGVNFGMDVWGQGTTVTVSS
VL: DIQMTQEPSLTTSPGGTVTLTCRSSTGAVTTSNYANWVQEKPGQAPRGLIGGTNKRAPGTPARFSGSLIGGKAALTITGVQPEDEAIYFCALWYSNLWVFGGGTKLEIK
notes: as for B2
B11: affinity-matured B7-H3 antibody 46H9 (antibody, V domains shown)
VH: QVQLVQSGAEVKKPGSSVKVSCKASGGTFSNYAINWVRQAPGQGLEWMGGIIPLFGTANYAQKFQGRVTITADESTSTAYMELSSLRSDDTAVYYCARDREARESGVNFGMDVWGQGTTVTVSS
VL: DIQMTQEPSLTTSPGGTVTLTCRSSTGAVTTSNYANWVQEKPGQAPRGLIGGTNKRAPGTPARFSGSLIGGKAALTITGVQPEDEAIYFCALWYSNLWVFGGGTKLEIK
notes: as for B2
B12: affinity-matured B7-H3 antibody 44C5 (antibody, V domains shown)
VH: QVQLVQSGAEVKKPGSSVKVSCKASGGTFSNYAINWVRQAPGQGLEWMGGIIPRFGGVNYAQKFQGRVTITADESTSTAYMELSSLRSDDTAVYYCARDQVVATSGVNFGMDVWGQGTTVTVSS
VL: DIQMTQEPSLTTSPGGTVTLTCRSSTGAVTTSNYANWVQEKPGQAPRGLIGGTNKRAPGTPARFSGSLIGGKAALTITGVQPEDEAIYFCALWYSNLWVFGGGTKLEIK
notes: as for B2
B13: affinity-matured B7-H3 antibody 50A11 (antibody, V domains shown)
VH: QVQLVQSGAEVKKPGSSVKVSCKASGGTFSNYAINWVRQAPGQGLEWMGGIIPLFGTANYAQKFQGRVTITADESTSTAYMELSSLRSDDTAVYYCARDQVVPRSGVNFGMDVWGQGTTVTVSS
VL: DIQMTQEPSLTTSPGGTVTLTCRSSTGAVTTSNYANWVQEKPGQAPRGLIGGTNKRAPGTPARFSGSLIGGKAALTITGVQPEDEAIYFCALWYSNLWVFGGGTKLEIK
notes: as for B2
B14: affinity-matured B7-H3 antibody 43D4 (antibody, V domains shown)
VH: QVQLVQSGAEVKKPGSSVKVSCKASGGTSGVALINWVRQAPGQGLEWMGGIIPLFGTANYAQKFQGRVTITADESTSTAYMELSSLRSDDTAVYYCARDQVVATSGVNFGMDVWGQGTTVTVSS
VL: DIQMTQEPSLTTSPGGTVTLTCRSSTGAVTTSNYANWVQEKPGQAPRGLIGGTNKRAPGTPARFSGSLIGGKAALTITGVQPEDEAIYFCALWYSNLWVFGGGTKLEIK
notes: as for B2
B15: affinity-matured B7-H3 antibody 50A6 (antibody, V domains shown)
VH: QVQLVQSGAEVKKPGSSVKVSCKASGGTFSNYAINWVRQAPGQGLEWMGGIIPLFGTANYAQKFQGRVTITADESTSTAYMELSSLRSDDTAVYYCARDAVVPNSGVNFGMDVWGQGTTVTVSS
VL: DIQMTQEPSLTTSPGGTVTLTCRSSTGAVTTSNYANWVQEKPGQAPRGLIGGTNKRAPGTPARFSGSLIGGKAALTITGVQPEDEAIYFCALWYSNLWVFGGGTKLEIK
notes: as for B2
B16: affinity-matured B7-H3 antibody 43G11 (antibody, V domains shown)
VH: QVQLVQSGAEVKKPGSSVKVSCKASGGTLRPVLINWVRQAPGQGLEWMGGIIPLFGTANYAQKFQGRVTITADESTSTAYMELSSLRSDDTAVYYCARDQVVATSGVNFGMDVWGQGTTVTVSS
VL: DIQMTQEPSLTTSPGGTVTLTCRSSTGAVTTSNYANWVQEKPGQAPRGLIGGTNKRAPGTPARFSGSLIGGKAALTITGVQPEDEAIYFCALWYSNLWVFGGGTKLEIK
notes: as for B2
B17: affinity-matured B7-H3 antibody 50B10 (antibody, V domains shown)
VH: QVQLVQSGAEVKKPGSSVKVSCKASGGTFSNYAINWVRQAPGQGLEWMGGIIPLFGTANYAQKFQGRVTITADESTSTAYMELSSLRSDDTAVYYCARDVEVFNSGVNFGMDVWGQGTTVTVSS
VL: DIQMTQEPSLTTSPGGTVTLTCRSSTGAVTTSNYANWVQEKPGQAPRGLIGGTNKRAPGTPARFSGSLIGGKAALTITGVQPEDEAIYFCALWYSNLWVFGGGTKLEIK
notes: as for B2

This test deals with T1, human B7-H3 antigen, recombinant …. The test can be described thus: ELISA, coated human B7-H3 antigen. On the procedure: The binding activity of the 5D9 to B7-H3 antigen was analyzed by ELISA. Human B7-H3 antigens were coated on the 96-well plate and placed at 4° C. overnight. The antibody 5D9 and controls were diluted to 10 μg/mL, followed by 4-fold dilution gradients to generate a total of 8 different concentrations. The diluted samples and the wells coated antigen were incubated for 1h. After washing, HRP (horseradish peroxidase)-labeled goat anti-human IgG (H+L) secondary antibody was added to the plate and incubated for 1h. TMB (3,3′,5,5′-tetramethylbenzidine) solution was then added to each well after washing for chromogenesis. The absorbance was measured at OD₄₅₀ₙₘ with a microplate reader. Taking the logarithmic value of the sample concentration as the X-axis, and the absorbance OD₄₅₀ₙₘ value as the Y-axis, a dose-response curve was drawn to calculate the EC₅₀. The EC₅₀ represents the binding activity of the antibody to B7-H3 antigen. A negative control IgG group and a positive antibody Enoblituzumab control group were meanwhile set in the experiment.
ELISA was used to analyze the binding activity of affinity-matured variants to human B7-H3 antigen. By taking the logarithmic value of the sample concentration as the X-axis, and the absorbance OD₄₅₀ₙₘ value as the Y-axis, a dose-response curve was drawn to calculate the EC₅₀. The EC₅₀ represents the binding activity of the affinity-matured variants to B7-H3 antigen. A positive control Enoblituzumab and a negative control hIgG were set in the experiment.
On to B1, for which the concentration giving a half-maximal response (EC50) turned out to be 0.0255 µg/mL. As to B2, the concentration for a half-maximal effect (EC50) worked out at 0.0274 µg/mL.

On to B3, for which the EC50 is 0.0283 µg/mL. Consider B4, for which the half-maximal effective concentration (EC50) is 0.0418 µg/mL. For B5, the EC50 worked out at 0.0265 µg/mL. Under B6 stands 0.039 µg/mL; under B7, 0.0219 µg/mL. On to B8, for which the EC50 was 0.0278 µg/mL. For B9 the value was 0.0464 µg/mL; for B10, 0.0244 µg/mL; for B11, 0.147 µg/mL. Take B12: the EC50 came to 0.0639 µg/mL. Under B13 stands 0.0339 µg/mL; under B14, 0.0303 µg/mL; under B15, 0.0247 µg/mL. B16: the EC50 came to 0.0411 µg/mL. In the case of B17, the half-maximal effective concentration (EC50) was 0.0278 µg/mL.
